Results: the DeepSol protein solubility set

Experiment: soluble on expression in E. coli; label from the status in PepcDB or PDB records

Which “soluble on expression in E. coli” value does the source give for “MKFLHTADWHIGKKLHGFDLLAEQREAFEQILAIAKEEQVDAVVIAGDLYDRSVPAVEAVEIFNEMMIQMNLKEHFPVLAISGNHDSSTRLETGGPWFNQTQFHLNTRLEQAFQPIEIDNTQFYLLPYFEPIAARLYFEDETIRTIQAAMEKVVAKMQESFLPNKKQVLVSHFFVAGSEKTDSETKLTVGGLDVVPTALLEPFDYVALGHLHGKNALQAPNARYSGSPVKFSLSEMTQEKGVWLVETEAEVHFQFRALKPLRDIQQLTGSFQQLTDPAFYQEVNRENYLHVQLTDRAIIPNMMNQLRKIYPKIIGLERLNGRETSSGNQKKVVQIEQRSPEEHLHDFFNDVTGEALTEQQAQWVQEELSTLNQLERGK” here?
The value was “not soluble”.

For “MKLKSFGVFGNPIKHSKSPLIHNACFLTFQKELRFLGHYHPILLPLESHIKSEFLHLGLSGANVTLPFKERAFQVCDKIKGIALECGAVNTLVLENDELVGYNTDALGFYLSLKQKNYQNALILGAGGSAKALACELKKQGLQVSVLNRSSRGLDFFQRLGCDCFMEPPKSAFDLIINATSASLHNELPLNKEVLKGYFKEGKLAYDLAYGFLTPFLSLAKELKTPFQDGKDMLIYQAALSFEKFSASQIPYSKAFEVMRSVFLEHHHHHH”, which “soluble on expression in E. coli” value is on record?
Its value is “soluble”.

For “MNFQKVCSLDELWEGDMTEVEVAGHVIVLVRPEGGEPRAFQGICPHQDIPLAEGKFDGRVLMCRAHQWTFDANTGKGINPGGARLAEYALKVEGDDILVAVEGVEPLFANC”, which “soluble on expression in E. coli” value is on record?
Its value is “soluble”.

For “GMAVECIKDKVTRYPERASYSDEDLVAMLDRNFTCTVSFIDGGIPYAIPMMLASEGKTIYLHGSMKSRIYGILKTGQLIAISLLEINGIVLAKEIKNNSINYVSALIFGRPYEIDDTEKKIEVFRLLTEKLVKGRWDNSIKPSYEDLNGVFVFAVKPETFSMKARTGPPHDTSTDDIWSGVLPIQHTISEAGENAPEYVKSLYGKRIFI”, which “soluble on expression in E. coli” value is on record?
Its value is “soluble”.

With “MPSEKAFIQHLRTASFQGLHLHHFHQKVGKCGVVGFDIHIFPTLLPAAQGILDIQLGLFRIDCAPLAVYRRTQVDFIHTVIDGIASDQAFSEVVQILRRLNLGHFTDTHLIAQARRFIADFGNIRPMRRGKAETFCRCFRFDGIDRIHGDFRQCGHINRLAAGKNCRNGKRDKVFFHAPIIIKFALRKQIVRQEK” as the sequence, how does the “soluble on expression in E. coli” value read?
The value was “not soluble”.

With “MKETCDLLAFGAHPDDVEIGMGGTIAKYVRRGYRIVICDLTQAELSSNGTVDERQREAAEAARRLGVSERFNLGLPDRGLYVEEEAIRQIAAVIRRYRPRLVFAPYWEDRHPDHGRCARLVEEAVFSAGIRRYGAGELGDAHRVRAVYYYMINAFCRPHFLIDISETINDKLDSLRAYESQFQKRPGSVDTPLTNGYIEMIESRERWFGQQIGAAYAEGFLTKTPIHLSNLFEEER” as the sequence, how does the “soluble on expression in E. coli” value read?
The value was “soluble”.

Which “soluble on expression in E. coli” value does the source give for “MSLAKILVIDDESTILQNIKFLLEIDGNEVLTASSSTEGLRIFTENCNSIDVVITDMKMPKLSGMDILREIKKITPHMAVIILTGHGDLDNAILAMKEGAFEYLRKPVTAQDLSIAINNAINRKKLLMENERMTQELLAHRNYLQGLHDSAAKILLNMLPKNLPDIEGFNFAVDYKSCDGVGGDMYDVCDIGDYICFYVFDVSHHGILAAVISIIIKSFLQNIEYNYRQGINKRRFPEIVLDLNLELLSNTAQNVFASLFLGFIDKNSKKLYTVSAGHIPQYIMKENGLVPLESTGPILGVFEDSTYKCAVNQLEPGDKVLLFTDGIIESPSDSSDESSDGNQIFGYENMVKVLESCKNEPISTTIDKIMKAVKDFSGNRCTDDMTILGVEVLKENEGHHHHHH” here?
Its value is “soluble”.

With “MSSKNPVDEQPCCGSHEGSHQDPAPETLVVEKEVNNGEKKIRIAVVGCSHGEMDAIYETMTLIEQKNGYKFDLLICCGDYQAVRNYGDLPHMSIPPKYRSLQTFYKYYSGEQKAPVLTLFIGGNHEASGYLCELPNGGWVAPNIYYMGFANCIRFANLRIAGLSGIFSQGDFQFSHYERPSFSERDVKSAYHVRNVDMFRLRQLKSDNENKISNPIDIMLSHDWPGGIPDFGDKEWLFRKKDLFEADHNSGKLGNPSGMKLIYDCRPRYYLAAHLHIAFAALVPHKGSGSGRPQPTRFLSLDKPIPGRKFMQALELNVADDAKLELSYDPQWLAILRNTDLLTTGTKEQLILPDMASNRPCVYERKDFRPTAEELKEIEKLGDLTIRTDSFQQTAPPLKEITESSKNVPPSAYYRNPQSAEFCQWLGIRDLNQMLVEKTSEHVGTPYYMMTQDDANAKPNQDDVDFGDEDFVIDRGHTSDEPEAKKSRLDEDKFEAVPSE” as the sequence, how does the “soluble on expression in E. coli” value read?
The value was “soluble”.

With “MNPIHDRTSDYHKYLKVKQGDSDLFKLTVSDKRYIWYNPDPKERDSYECGEIVSETSDSFTFKTVDGQDRQVKKDDANQRNPIKFDGVEDMSELSYLNEPAVFHNLRVRYNQDLIYTYSGLFLVAVNPFKRIPIYTQEMVDIFKGRRRNEVAPHIFAISDVAYRSMLDDRQNQSLLITGESGAGKTENTKKVIQYLASVAGRNQANGSGVLEQQILQANPILEAFGNAKTTRNNNSSRFGKFIEIQFNNAGFISGASIQSYLLEKSRVVFQSETERNYHIFYQLLAGATAEEKKALHLAGPESFNYLNQSGCVDIKGVSDSEEFKITRQAMDIVGFSQEEQMSIFKIIAGILHLGNIKFEKGAGEGAVLKDKTALNAASTVFGVNPSVLEKALMEPRILAGRDLVAQHLNVEKSSSSRDALVKALYGRLFLWLVKKINNVLCQERKAYFIGVLDISGFEIFKVNSFEQLCINYTNEKLQQFFNHHMFKVEQEEYLKEKINWTFIDFGLDSQATIDLIDGRQPPGILALLDEQSVFPNATDNTLITKLHSHFSKKNAKYEEPRFSKTEFGVTHYAGQVMYEIQDWLEKNKDPLQQDLELCFKDSSDNVVTKLFNDPNIASRAKKGANFITVAAQYKEQLASLMATLETTNPHFVRCIIPNNKQLPAKLEDKVVLDQLRCNGVLEGIRITRKGFPNRIIYADFVKRYYLLAPNVPRDAEDSQKATDAVLKHLNIDPEQYRFGITKIFFRAGQLARIEEAREPN” as the sequence, how does the “soluble on expression in E. coli” value read?
Its value is “soluble”.

For “MSLKYDVVVIGAGGAGYHGAFRLAKAKYNVLMADPKGELGGNCLYSGCVPSKTVREVIQTAWRLTNIANVKIPLDFSTVQDRKDYVQELRFKQHKRNMSQYETLTFYKGYVKIKDPTHVIVKTDEGKEIEAETRYMIIASGAETAKLRLPGVEYCLTSDDIFGYKTSFRKLPQDMVIIGAGYIGLEIASIFRLMGVQTHIIEMLDRALITLEDQDIVNTLLSILKLNIKFNSPVTEVKKIKDDEYEVIYSTKDGSKKSIFTNSVVLAAGRRPVIPEGAREIGLSISKTGIVVDETMKTNIPNVFATGDANGLAPYYHAAVRMSIAAANNIMANGMPVDYVDVKSIPVTIYTIPSLSYVGILPSKARKMGIEIVEAEYNMEEDVSAQIYGQKEGVLKLIFERGSMRLIGAWMIGVHSQYLINELGLAVAYGLNAKQLASFAEQHPSTNEIISYTARKVIEGHHHHHH”, which “soluble on expression in E. coli” value is on record?
Its value is “soluble”.

Which “soluble on expression in E. coli” value does the source give for “MAHHHHHHMFNEAAVPFIQTARDNGLLFGGSDAPAMIDYTSEHGKSYHVRGSIFEVAPHFEVLNGIGYGAYGVVCAAVDLRLVASSVYYNEAMRTIEEEGRIVTRQRRGHDAPVYFRTRAVLDEAGRGGPVRVPHLYSEPFKRRTLARGEVSPFVAIKKVTKVFDDLVDGRRILREIKLLRYLQGHPNIVRLMEVGRPPAPTGASSSAAFDDIYLVTDLMDTDLGALLRSSQEIAMDQLRFIAYQLMKVLVYVHSSGVIHRDLKPGNILLNGNCDMKLCDFGLSRGGVPAWPHERTLTAVATAAESSAKELEDWGLFCWSSSAARGASSAPHAAKQPPLYSLTDYVVTRYYRAPELLIMGRYNHAIDMWSAGCILAEMVLRRPLFTGANYLSQLALILETPGLRGVPQTPEEAAALFEGGEEGKHFINDILFHKTARRRDPLTLSDQVHSQVLFHSTLFGFKVDVPISLGILIAKLLSFDPRKRPTALEALRDPFFWPLYDSRDEILRCPASDPSVAREQIDDIAAYQKAHPCVVVDESPVFTWEFDHRITSAQALRGLFEEECQISRDVQQQLERQQRLRSSPVVKCSERRTLERSLFSGASDGSSGGDGAH” here?
Its value is “not soluble”.

With “LVPEAPAPFEEPLPPEATDQWQDRALCAQTDPEAFFPEKGGSTREAKKICMGCEVRHECLEYALAHDERFGIWGGLSERERRRLKRGII” as the sequence, how does the “soluble on expression in E. coli” value read?
Its value is “soluble”.

With “MFFIHKLFPAKLIRRYKRFLADVKREDQHIFTVSVPNTGSMLGLTTPNSNIWLSYHNNPKRRYAYQLEIVEANNTLVGINTTLPNKLALEAIQNNLLPELNGYKTILKEQRYGIQSRIDFLLRDDILPDCYLEIKNVHFIRQKGLAEFPDTETKRGTRHLEELIKIVQQGKRAVMLYIIQREDCSAFTICRDLDPTYGRKFDLALESGVEFYAIKCQVSVEGIFPIQQVKIENRK” as the sequence, how does the “soluble on expression in E. coli” value read?
Its value is “not soluble”.
